Numbering of substitutions follows the chain as printed. Ends that are not written are not given here. Me3 = trimethyl (on lysine, trimethyl-lysine)
Columns and labels:
Test in all cases: ITC; chromodomain at 100 µM, H3K9me3 peptide at approximately 1 mM; 20 mM Tris, pH 8.0, 25 mM NaCl, 2 mM β-mercaptoethanol; 20°C; MicroCal iTC200, sixteen 2.5 µl injections
Settings in all cases: both partners purified
[1] = molecular target: T1, Rhino chromodomain G31A (Rhino residues 20-90) (D. melanogaster, UniProt Q7JXA8 20-90, G31A)
T1 construct: Rhino (HP1d), D. melanogaster, chromodomain construct spanning residues 20-90, with G31A; also called G31A mutant; source: E. coli BL21-CodonPlus (DE3)-RIPL, purified (Ni-NTA, Ulp1 cleavage, ion exchange, Superdex75); not shown: His6, N-terminal, cleaved; SUMO, N-terminal, cleaved
T1 sequence (looked up): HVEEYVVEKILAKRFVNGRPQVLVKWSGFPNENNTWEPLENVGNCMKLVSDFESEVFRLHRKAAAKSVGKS

[2] = molecular target: T2, Rhino chromodomain, wildtype construct (Rhino residues 20-90) (D. melanogaster, UniProt Q7JXA8 20-90)
T2 construct: Rhino (HP1d), D. melanogaster, chromodomain construct spanning residues 20-90; Expressed as His6-SUMO-RhinoCD in pET-28; the tag was removed with Ulp1 protease; also called RhinoCD; wildtype domain; source: E. coli BL21-CodonPlus (DE3)-RIPL, purified (Ni-NTA, Ulp1 cleavage, ion exchange, Superdex75); not shown: His6, N-terminal, cleaved; SUMO, N-terminal, cleaved
T2 sequence (looked up): T1 sequence (looked up) with A12G

[3] = molecular target: T3, Rhino chromodomain G31D (Rhino residues 20-90) (D. melanogaster, UniProt Q7JXA8 20-90, G31D)
T3 construct: Rhino (HP1d), D. melanogaster, chromodomain construct spanning residues 20-90, with G31D; also called Rhino^G31D chromodomain; source: E. coli BL21-CodonPlus (DE3)-RIPL, purified (Ni-NTA, Ulp1 cleavage, ion exchange, Superdex75); not shown: His6, N-terminal, cleaved; SUMO, N-terminal, cleaved
T3 sequence (looked up): T1 sequence (looked up) with A12D

B1: H3K9me3 peptide (KQTAR-K[me3]-STGGK) (peptide)
peptide: KQTARK(Me3)STGGK
notes: histone H3 N-terminal tail, K4 to K14 with K9 trimethylated; also called H3K9me3-modified histone tail peptide; synthetic H3K9me3 peptides; source: synthetic peptide; bought: AnaSpec, Inc
Kd [1]: 43.5 ± 8.6 µM | Kd [2]: 30.9 ± 3 µM | Kd [3]: 31.1 ± 3.2 µM
